The values below are quoted from earlier work in publication PMC11468230.

Series [1] deals with KV channel (Kv1.3) (Homo sapiens) (UniProt P22001).
The next series concerns the target IKCa1 (Homo sapiens) (UniProt O15554).
A further series concerns the target Kv1.3 (Homo sapiens) (UniProt P22001).
Series [2] concerns the target GLP-1 receptor (Homo sapiens) (UniProt P43220).
UniProt P43220, sequence (P43220 24-463): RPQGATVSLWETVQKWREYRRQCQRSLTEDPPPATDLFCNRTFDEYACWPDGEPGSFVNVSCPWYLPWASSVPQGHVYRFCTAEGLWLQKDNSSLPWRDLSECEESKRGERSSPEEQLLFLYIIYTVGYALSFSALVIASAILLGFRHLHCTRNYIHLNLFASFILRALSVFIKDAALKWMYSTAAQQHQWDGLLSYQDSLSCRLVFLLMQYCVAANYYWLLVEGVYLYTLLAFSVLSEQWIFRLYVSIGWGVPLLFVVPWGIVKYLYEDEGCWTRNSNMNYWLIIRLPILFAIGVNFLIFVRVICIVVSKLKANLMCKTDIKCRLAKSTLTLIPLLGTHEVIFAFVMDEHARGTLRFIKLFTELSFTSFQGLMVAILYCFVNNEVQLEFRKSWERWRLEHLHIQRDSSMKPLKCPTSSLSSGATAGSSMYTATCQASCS

UniProt O15554, sequence (O15554 whole entry): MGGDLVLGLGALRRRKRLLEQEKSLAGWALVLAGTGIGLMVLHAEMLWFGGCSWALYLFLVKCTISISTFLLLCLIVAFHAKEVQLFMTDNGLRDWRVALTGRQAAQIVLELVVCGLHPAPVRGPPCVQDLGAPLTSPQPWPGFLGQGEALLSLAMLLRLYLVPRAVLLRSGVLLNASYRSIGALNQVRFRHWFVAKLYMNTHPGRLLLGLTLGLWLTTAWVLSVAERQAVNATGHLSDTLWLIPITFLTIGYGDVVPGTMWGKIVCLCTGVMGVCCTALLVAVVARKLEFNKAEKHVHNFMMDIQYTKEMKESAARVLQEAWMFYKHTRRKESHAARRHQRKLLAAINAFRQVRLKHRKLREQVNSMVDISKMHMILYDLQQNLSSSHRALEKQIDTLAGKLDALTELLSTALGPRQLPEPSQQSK

Consider Charybdotoxin (from UniProt P13487), for which the Kd (as a rule, the constant that tells how readily two partners part at equilibrium) in series [1] is 3 nM; in the series with IKCa1 (Homo sapiens) it was 5 nM. As to ShK (from UniProt P29187), the Kd with Kv1.3 (Homo sapiens) was 0.011 nM.

On to exendin-4 (from UniProt P26349), for which, in series [2], the Ki (usually a measure of affinity in units of concentration, obtained from inhibition or displacement) is 0.46 nM.
